# In US8871909B2, “Antibodies inhibiting c-Met dimerization and uses thereof” (Pierre Fabre Medicament, priority 2007, dated 2014):
# What was measured:
# [1] = system: NCI-H441; test: In vivo combination of 224G11 and Docetaxel on NCI-H441 xenograft model; set-up: species or system Athymic nude mice; settings: D11 to D35; Docetaxel 7.5 mg/kg i.p.
# Experimental: (§1) NCI-H441 cells from ATCC were routinely cultured in RPMI 1640 medium, 10% FCS, 1% L-Glutamine. Cells were split two days before engraftment being in exponential phase of growth. Nine million NCI-H441 cells were engrafted to Athymic nude mice. […] Mice were treated i.p. either with a loading dose of 2 mg of 224G11 Mab/mouse and then twice a week with 1 mg of antibody/mouse or with 4 injections of Docetaxel (D5, D12, D19, D26) at 7.5 mg/kg. A third group administered with the combine treatment was also included. Docetaxel was given by i.p. injections. Tumor volume was measured twice a week and calculated by the formula: π/6×length×width×height and animal weights were monitored every day over the period of Docetaxel treatment. Statistical analysis was performed at each measured time using either a t-test or a Mann-Whitney test. […] Results are represented in FIG. 47.
# [2] = system: NCI-H441; test: In vivo combination of 224G11 and Navelbine on NCI-H441 xenograft model (Example 19); set-up: species or system Athymic nude mice; settings: day 41 post first injection
# Experimental: NCI-H441 cells from ATCC were routinely cultured in RPMI 1640 medium, 10% FCS, 1% L-Glutamine. Cells were split two days before engraftment being in exponential phase of growth. Ten million NCI-H441 cells were engrafted to Athymic nude mice. […] Mice were treated i.p. either with a loading dose of 2 mg of 224G11 Mab/mouse and then twice a week with 1 mg of antibody/mouse until Day 38 or with 3 injections of Navelbine® (D5, D12, D19) at 8 mg/kg. A third group administered with the combine treatment was also included. Navelbine® was given by i.p. injections. Tumor volume was measured twice a week and calculated by the formula: π/6×length×width×height and animal weights were monitored every day over the period of Navelbine® treatment. Statistical analysis was performed at each measured time using either a t-test or a Mann-Whitney test. […] Results are represented in FIG. 45.
# [3] = system: NCI-H441; test: In vivo combination of 224G11 and Doxorubicin on NCI-H441 xenograft model; set-up: species or system Athymic nude mice; settings: D11 to D39; Doxorubicin 5 mg/kg i.v.
# Experimental: as §1, with “growth. Ten” for “growth. Nine”, “of Doxorubicin” for “of Docetaxel”, “at 5” for “at 7.5”, “included. Doxorubicin” for “included. Docetaxel”, “by i.v.” for “by i.p.”, “FIG. 46.” for “FIG. 47.”
# [4] = system: BxPC3 cells; test: In vitro inhibition of BxPC3 proliferation ([3H]thymidine incorporation); format: cell-based; settings: BxPC3, in absence of ligand, antibody alone
# Experimental: For that purpose 50 000 BxPC3 cells were plated in 96 well plates in RPMI medium, 2 mM L. Glutamine, without SVF. […] After 3 days, cells were pulsed with 0.5 μCi of [^3H]thymidine for 16 hours. The magnitude of [^3H]thymidine incorporated into trichloroacetic acid-insoluble DNA was quantified by liquid scintillation counting. Results were expressed as raw data to really evaluate the intrinsic agonistic effect of each Mab (FIGS. 2A and 2B).
# [5] = system: c-Met; test: BRET analysis of c-Met dimerization on c-Met transfected CHO cells; format: cell-based; settings: CHO cells expressing C-Met-Rluc and C-Met-K1100A-YFP, supernatants
# Sequence of c-Met (P08581 25-307 limits assumed): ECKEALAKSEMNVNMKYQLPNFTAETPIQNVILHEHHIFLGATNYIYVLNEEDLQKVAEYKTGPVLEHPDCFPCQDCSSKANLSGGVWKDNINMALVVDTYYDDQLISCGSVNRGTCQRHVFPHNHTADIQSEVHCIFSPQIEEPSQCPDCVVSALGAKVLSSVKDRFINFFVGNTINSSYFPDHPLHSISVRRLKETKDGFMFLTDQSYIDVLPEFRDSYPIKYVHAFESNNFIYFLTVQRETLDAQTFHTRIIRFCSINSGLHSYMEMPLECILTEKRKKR
# Sequence of c-Met (P08581 308-932 limits assumed): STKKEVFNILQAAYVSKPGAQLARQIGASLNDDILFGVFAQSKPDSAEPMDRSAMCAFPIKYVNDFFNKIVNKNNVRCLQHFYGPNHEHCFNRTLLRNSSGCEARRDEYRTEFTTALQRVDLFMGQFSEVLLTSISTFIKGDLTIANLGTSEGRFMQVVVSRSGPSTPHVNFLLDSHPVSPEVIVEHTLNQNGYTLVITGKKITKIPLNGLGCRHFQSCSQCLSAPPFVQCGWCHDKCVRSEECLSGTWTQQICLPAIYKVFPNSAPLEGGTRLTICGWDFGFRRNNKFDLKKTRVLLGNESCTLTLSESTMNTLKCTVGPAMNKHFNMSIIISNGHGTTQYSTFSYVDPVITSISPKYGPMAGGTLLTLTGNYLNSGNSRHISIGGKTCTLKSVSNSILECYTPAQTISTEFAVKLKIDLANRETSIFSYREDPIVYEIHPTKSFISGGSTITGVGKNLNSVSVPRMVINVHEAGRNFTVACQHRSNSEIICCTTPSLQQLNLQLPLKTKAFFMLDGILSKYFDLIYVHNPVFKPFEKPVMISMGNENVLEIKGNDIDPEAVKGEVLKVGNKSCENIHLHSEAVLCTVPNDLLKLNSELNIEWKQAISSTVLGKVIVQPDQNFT
# Description: The technology BRET, used in the step iii) of the process, is well known by the person skill in the art and will be detailed in the following examples. More particularly, BRET (Bioluminescence Resonance Energy Transfer) is a non-radiative energy transfer occurring between a bioluminescent donor (Renilla Luciferase (Rluc)) and a fluorescent acceptor, a mutant of GFP (Green Fluorescent Protein) or YFP (Yellow fluorescent protein). In the present case EYFP (Enhanced Yellow Fluorescent Protein) was used. The efficacy of transfer depends on the orientation and the distance between the donor and the acceptor. Then, the energy transfer can occur only if the two molecules are in close proximity (1-10 nm). This property is used to generate protein-protein interaction assays. Indeed, in order to study the interaction between two partners, the first one is genetically fused to the Renilla Luciferase and the second one to the yellow mutant of the GFP. Fusion proteins are generally, but not obligatory, expressed in mammalian cells. In presence of its membrane permeable substrate (coelenterazine), Rluc emits blue light. If the GFP mutant is closer than 10 nm from the Rluc, an energy transfer can occur and an additional yellow signal can be detected. The BRET signal is measured as the ratio between the light emitted by the acceptor and the light emitted by the donor. So the BRET signal will increase as the two fusion proteins are brought into proximity or if a conformational change bring Rluc and GFP mutant closer.
# Then antibodies inhibiting at least 50% cell proliferation were evaluated as supernatants by BRET analysis on c-Met transfected cells. For that purpose, CHO stable cell lines expressing C-Met-Rluc or C-Met-Rluc and C-Met-K1100A-YFP were generated. Cells were distributed in white 96 well microplates in DMEM-F12/FBS 5% culture medium one or two days before BRET experiments. Cells were first cultured at 37° C. with CO2 5% in order to allow cell attachment to the plate. Cells were then starved with 200 μl DMEM/well overnight. Immediately prior to the experiment, DMEM was removed and cells quickly washed with PBS. Cells were incubated in PBS in the presence or absence of antibodies to be tested or reference compounds, 10 min at 37° C. prior to the addition of coelenterazine with or without HGF in a final volume of 50 μl. […]
# BRET ratio has been defined previously [Angers et al., Proc. Natl. Acad. Sci. USA, 2000, 97:3684-3689] as: [(emission at 530 nm)−(emission at 485 nm)×Cf]/(emission at 485 nm), where Cf corresponds to (emission at 530 nm)/(emission at 485 nm) for cells expressing Rluc fusion protein alone in the same experimental conditions. […] For the sake of readability, results are expressed in milliBRET units (mBU); mBU corresponds to the BRET ratio multiplied by 1000.
# [6] = target: T1, SEMA domain (Homo sapiens, UniProt P08581); test: ELISA recognition of recombinant SEMA domain; format: binding
# T1 construct: the recombinant c-Met-Fc protein and the recombinant SEMA domain
# T1 sequence (P08581 27-515 limits assumed): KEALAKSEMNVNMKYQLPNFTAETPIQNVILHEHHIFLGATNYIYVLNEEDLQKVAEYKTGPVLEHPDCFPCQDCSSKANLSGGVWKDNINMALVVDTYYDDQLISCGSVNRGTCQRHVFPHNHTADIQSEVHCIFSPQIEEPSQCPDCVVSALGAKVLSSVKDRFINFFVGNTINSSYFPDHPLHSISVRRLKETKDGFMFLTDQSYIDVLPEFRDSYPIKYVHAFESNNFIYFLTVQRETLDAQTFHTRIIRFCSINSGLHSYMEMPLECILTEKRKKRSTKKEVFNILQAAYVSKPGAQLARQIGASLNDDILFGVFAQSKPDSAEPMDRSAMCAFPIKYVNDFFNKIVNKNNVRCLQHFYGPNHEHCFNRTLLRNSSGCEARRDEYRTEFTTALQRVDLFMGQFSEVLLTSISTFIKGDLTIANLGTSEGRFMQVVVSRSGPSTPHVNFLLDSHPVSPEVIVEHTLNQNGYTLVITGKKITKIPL
# Experimental: To characterize the pattern of recognition of the 3 selected antibodies, 3 ELISA have been set up with the recombinant c-Met protein, its monomeric fragment (obtained by cleavage of the recombinant c-Met-Fc protein and the recombinant SEMA domain.
# To perform these ELISA the human dimeric c-Met protein (R&D sytems, cat#358MT) is coated at the concentration of 0.7 μg/ml in PBS overnight at 4° C. After saturation of the plates (Costar #3690) with a 0.5% gelatin solution 2 hours at 37° C., hybridoma supernatants are incubated 1 hour at 37° C. Once rinsed with PBS, the anti-mouse HRP-antibody (Jackson ImmunoResearch, catalog #115-035-164) is added to each well at a 1/5000 dilution in ELISA buffer (0.1% gelatin/0.05% Tween 20 in PBS) and the plates incubated for 1 hour at 37° C. […] The reaction is left to occur for 5 min at room temperature. The reaction is stopped by the addition of 50 μl/well of a 1 M H2SO4 solution and read on a plate reader at 450 nm. The same kind of protocol was performed on monomeric c-Met and SEMA domain but in that cases proteins were coated at 5 and 3 μg/ml respectively.
# [7] = system: A549 cells; test: Matrigel invasion assay with A549 cells; format: cell-based; settings: A549, Mab 10 μg/ml, basal (no HGF)
# Experimental: To evaluate the inhibiting effect of the anti-c-Met antibodies on the invasion process, A549 cells were plated in the upper chamber of BD BioCoat™ Matrigel™ invasion chambers (6.5 mm diameter wells with 8-μm pre size polycarbonate membranes). A459 cells were starved 24 hours before performing the invasion assay. Then 500 000 A549 cells were plated in chemotaxis buffer (DMEM medium, 0.1% BSA, 12 mM Hepes) in the upper well of each chamber, upon the Matrigel coating either with or without the antibody to be tested (final Mab concentration 10 μg/ml). After 1 hour incubation of the plates at 37° C. with 5% CO2, the lower chambers were filled with either growth medium containing 400 ng/ml of rhHGF or with growth medium alone. The chambers were incubated for 48 additional hours at 37° C. with 5% CO2. At the end of this incubation time, cells that remained on upper surface of the filter were gently removed with a cotton swab, cells that migrated to the lower surface of the filter were lysed, stained with CyQuant GR dye buffer (Invitrogen) and counted using a fluorescence reader Berthold Mithras LB940. All conditions were tested as triplicates.
# [8] = system: NCI-H441; test: NCI-H441 xenograft model (Example 11)
# Description: The evaluation of anti-c-met antibodies on the in vivo activity of this non autocrine cell line could give some insights about their potency to impact on c-met dimerization.
# [9] = target: T2, HGF-cMet (Homo sapiens, UniProt P08581); test: HGF-cMet competition assay (ELISA); format: binding; settings: at high antibody concentration, purified murine antibodies
# T2 construct: recombinant c-Met-Extra-Cellular Domain (ECD) fused to an human IgG Fc domain
# T2 sequence (P08581 25-932 limits assumed): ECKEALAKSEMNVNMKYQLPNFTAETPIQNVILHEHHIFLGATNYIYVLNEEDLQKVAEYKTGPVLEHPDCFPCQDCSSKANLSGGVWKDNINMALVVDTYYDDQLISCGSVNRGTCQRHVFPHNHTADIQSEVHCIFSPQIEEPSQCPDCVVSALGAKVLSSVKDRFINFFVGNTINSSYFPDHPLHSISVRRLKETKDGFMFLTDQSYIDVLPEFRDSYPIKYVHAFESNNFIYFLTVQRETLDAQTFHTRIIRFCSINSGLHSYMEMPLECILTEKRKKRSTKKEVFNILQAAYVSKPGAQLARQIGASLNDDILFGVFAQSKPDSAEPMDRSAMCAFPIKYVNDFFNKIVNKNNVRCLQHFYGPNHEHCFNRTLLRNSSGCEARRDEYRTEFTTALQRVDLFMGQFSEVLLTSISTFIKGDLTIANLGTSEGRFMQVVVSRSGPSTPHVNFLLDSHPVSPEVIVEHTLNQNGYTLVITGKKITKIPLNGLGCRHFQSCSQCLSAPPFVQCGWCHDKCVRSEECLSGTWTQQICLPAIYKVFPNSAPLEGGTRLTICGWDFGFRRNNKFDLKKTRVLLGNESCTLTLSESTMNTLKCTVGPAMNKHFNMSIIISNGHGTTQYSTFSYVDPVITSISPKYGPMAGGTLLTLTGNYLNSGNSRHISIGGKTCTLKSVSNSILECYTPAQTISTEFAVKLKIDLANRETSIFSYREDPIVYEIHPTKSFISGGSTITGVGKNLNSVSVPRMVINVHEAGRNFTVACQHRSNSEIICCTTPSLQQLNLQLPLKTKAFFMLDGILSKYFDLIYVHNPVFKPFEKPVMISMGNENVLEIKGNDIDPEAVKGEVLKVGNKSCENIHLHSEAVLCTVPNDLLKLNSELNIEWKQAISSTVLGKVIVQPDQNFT
# Description: FIG. 54: HGF-cMet competition assay. In this ELISA-based assay, recombinant Fc-cMET residual binding to plastic coated HGF in the presence of purified murine monoclonal antibodies 11E1, 224G11 and 227H1 was detected with […] and measured at 450 nm;
# FIG. 58: HGF-cMet competition assay of 227H1 murine and recombinant antibodies. In this ELISA-based assay, recombinant Fc-cMet residual binding to plastic coated HGF in the presence of the different forms of the 227H1 antibody was detected with a biotinylated unrelated anti-cMet antibody. Purified murine 227H1 monoclonal antibody, chimeric and HZ4VH-derived humanized 227H1-derived recombinant antibodies were tested and compared for their abilities to compete with HGF-cMet binding when measured at 450 nm;
# Humanization of the anti-cMet antibodies were performed independently for each chain and sequentially, regarding to the analysed amino acids in each variable domain. The humanization process was evaluated in a first attempt in an ELISA-based binding assay to recombinant Fc-cMet; binding activities the humanized antibodies being compared to the recombinant chimeric antibody. In a second attempt, anti-cMet humanized antibodies were evaluated for their abilities to displace the Fc-cMet binding onto plastic-coated recombinant HGF; this competition assay allowing the direct comparison of murine, chimeric and humanized versions of the anti-cMet antibodies.
# These two assays were used to characterize the recombinant chimeric and humanized versions of the murine anti-cMet antibodies. To this end, briefly, anti-cMet variable domains, either murine or humanized, were cloned into LONZA's pCONplus expression vectors series and recombinant IgG1/κ-derived antibodies were expressed in CHO cells. […] Both direct binding and HGF-competition assays were assessed to better characterize recombinant chimeric or humanized versions.
molecule,measurement,setting,value
"CC(=O)O[C@@]12CO[C@@H]1C[C@H](O)[C@@]1(C)C(=O)[C@H](O)C3=C(C)[C@@H](OC(=O)[C@H](O)[C@@H](NC(=O)OC(C)(C)C)c4ccccc4)C[C@@](O)([C@@H](OC(=O)c4ccccc4)[C@H]21)C3(C)C [Docetaxel, reference compound]",anti-tumor activity compared to the control group,[1],significant anti-tumor activity
"CCC1=C[C@@H]2CN(C1)Cc1c([nH]c3ccccc13)[C@@](C(=O)OC)(c1cc3c(cc1OC)N(C)[C@H]1[C@@](O)(C(=O)OC)[C@H](OC(C)=O)[C@]4(CC)C=CCN5CC[C@]31[C@@H]54)C2 [Navelbine®, reference compound]",reduction of average tumor volume,[2],76%
"COc1cccc2c1C(=O)c1c(O)c3c(c(O)c1C2=O)C[C@@](O)(C(=O)CO)C[C@@H]3O[C@H]1C[C@H](N)[C@H](O)[C@H](C)O1 [Doxorubicin, reference compound]",anti-tumor activity compared to the control group,[3],significant anti-tumor activity
"227H1: murine anti-c-Met monoclonal antibody, IgG1 kappa; heavy chain SEQ ID No. 19, light chain SEQ ID No. 22 (antibody, V domains shown, mus musculus) VH: EVQLQQSGPELVKPGASMKISCKASGYSFTDYTLNWVKQSHGKTLEWIGLINPYNGGTTYNQKFKGKATLTVDKSSSTAYMELLSLTSEDSAVYYCAREEITKDFDFWGQGTTLTVSS VL: GIVLTQSPASLAVSLGQRATISCRVSESIDTYGNSFIHWYQQKPGQPPKLLIYRASNLESGIPARFSGSGSRTDFTLTINPVEADDSATYYCQQSNEDPFTFGSGTKLEMK",agonist activity on cell proliferation,[4],without any agonist activity
same,inhibition of dimerization,[5],52%
same,binding to SEMA domain,[6],did not bind
same,"agonist effect on invasion, added alone",[7],No agonist effect
same,inhibition of in vivo growth of NCI-H441,[8],inhibited significantly
same,maximum of HGF binding displacement,[9],100%
